B1: FKBP38 isoform (FKBP^92-380), immunophilin and TPR domain (domain or fragment, UniProt Q14318 92-380, looked up)
chain: EWLDILGNGLLRKKTLVPGPPGSSRPVKGQVVTVHLQTSLENGTRVQEEPELVFTLGDCDVIQALDLSVPLMDVGETAMVTADSKYCYGPQGRSPYIPPHAALCLEVTLKTAVDGPDLEMLTGQERVALANRKRECGNAHYQRADFVLAANSYDLAIKAITSSAKVDMTFEEEAQLLQLKVKCLNNLAASQLKLDHYRAALRSCSLVLEHQPDNIKALFRKGKVLAQQGEYSEAIPILRAALKLEPSNKTIHAELSKLVKKHAAQRSTETALYRKMLGNPSRLPAKCPG
notes: FKBP8, fragment 92-380 containing both the immunophilin (PPIase) and TPR domain; numbers count on full-length FKBP8; also called FKBP8^92-380; not shown: His6 (from the vector pDMXV4), C-terminal, kept
B2: Yeast C-terminal fragment of Hsp90 (yHsp90^546-709) (domain or fragment)
chain: not shown
notes: Expressed from pRSETA as a His-tagged fusion; also called C-terminal domain of yeast Hsp90
B3: Hsp90β EDASRMEEVD C-terminal peptide (peptide)
peptide: EDASRMEEVD
notes: the terminal ten amino-acid residues of Hsp90β
B4: FKBP8 (FKBP^1-380), amino acids 1-380, lacking the C-terminal trans-membrane helix (domain or fragment, UniProt Q14318 1-380, looked up)
chain: MASCAEPSEPSAPLPAGVPPLEDFEVLDGVEDAEGEEEEEEEEEEEDDLSELPPLEDMGQPPAEEAEQPGALAREFLAAMEPEPAPAPAPEEWLDILGNGLLRKKTLVPGPPGSSRPVKGQVVTVHLQTSLENGTRVQEEPELVFTLGDCDVIQALDLSVPLMDVGETAMVTADSKYCYGPQGRSPYIPPHAALCLEVTLKTAVDGPDLEMLTGQERVALANRKRECGNAHYQRADFVLAANSYDLAIKAITSSAKVDMTFEEEAQLLQLKVKCLNNLAASQLKLDHYRAALRSCSLVLEHQPDNIKALFRKGKVLAQQGEYSEAIPILRAALKLEPSNKTIHAELSKLVKKHAAQRSTETALYRKMLGNPSRLPAKCPG
notes: FKBP8, amino acids 1-380, lacking the C-terminal trans-membrane helix; numbers count on full-length FKBP8 (Arg 184 is Arg 127 in FKBP38 numbering); Non-cleavable C-terminal His6 tag from pDMXV4; also called FKBP8 isoform; not shown: His6, C-terminal, kept
B5: Hsp90α^464-732, C-terminal domain of human Hsp90α (domain or fragment)
chain: not shown
notes: Hsp90α, human, residues 464-732 (C-terminal domain); Expressed from p2E as a PreScission cleavable His-tagged fusion; also called C-terminal domain of Hsp90α

How the values were obtained:
Conditions in all cases: both partners purified
Full-length human Hsp90β = target: T1, Full-length human Hsp90β (human, UniProt P08238 1-724); assay: ITC; 700 to 800 μM FKBP construct injected into 50 μM Hsp90 or Hsp70 protein in the cell; ITC200; 20 mM Tris, 300 mM NaCl, 1 mM EDTA pH 7.5
T1 construct: Hsp90β, human, full length; Expressed from pRSETA as a His-tagged fusion; also called intact Hsp90β

[1] = target: B4; assay: as above
[2] = target: B4; assay: ITC; 2 mM peptide injected into 50 μM FKBP^1-380 in the cell; ITC200; 20 mM Tris, 300 mM NaCl, 1 mM EDTA pH 7.5
[3] = target: T2, Hsp90β^295-724, middle and C-terminal domain fragment of human Hsp90β (human, UniProt P08238 295-724); assay: ITC; 700 to 800 μM FKBP construct injected into 50 μM Hsp90 or Hsp70 protein in the cell; ITC200; 20 mM Tris, 300 mM NaCl, 1 mM EDTA pH 7.5
T2 construct: Hsp90β, human, residues 295-724 (middle and C-terminal domain, with the MEEVD motif); Expressed from pRSETA as a His-tagged fusion; also called Hsp90^295-724
T2 sequence (P08238 295-724): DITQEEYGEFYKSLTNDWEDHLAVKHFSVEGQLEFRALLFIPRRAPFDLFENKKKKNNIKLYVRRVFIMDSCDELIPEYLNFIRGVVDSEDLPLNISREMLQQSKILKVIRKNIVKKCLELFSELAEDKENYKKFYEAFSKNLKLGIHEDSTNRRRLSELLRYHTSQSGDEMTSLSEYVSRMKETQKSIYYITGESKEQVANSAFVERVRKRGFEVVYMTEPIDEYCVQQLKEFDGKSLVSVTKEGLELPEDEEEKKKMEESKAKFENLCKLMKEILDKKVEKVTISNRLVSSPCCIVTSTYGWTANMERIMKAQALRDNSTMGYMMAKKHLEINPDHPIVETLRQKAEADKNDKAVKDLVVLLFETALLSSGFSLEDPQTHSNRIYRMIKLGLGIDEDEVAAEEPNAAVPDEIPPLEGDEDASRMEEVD

T1 sequence (P08238 whole entry, the tested form may be a part): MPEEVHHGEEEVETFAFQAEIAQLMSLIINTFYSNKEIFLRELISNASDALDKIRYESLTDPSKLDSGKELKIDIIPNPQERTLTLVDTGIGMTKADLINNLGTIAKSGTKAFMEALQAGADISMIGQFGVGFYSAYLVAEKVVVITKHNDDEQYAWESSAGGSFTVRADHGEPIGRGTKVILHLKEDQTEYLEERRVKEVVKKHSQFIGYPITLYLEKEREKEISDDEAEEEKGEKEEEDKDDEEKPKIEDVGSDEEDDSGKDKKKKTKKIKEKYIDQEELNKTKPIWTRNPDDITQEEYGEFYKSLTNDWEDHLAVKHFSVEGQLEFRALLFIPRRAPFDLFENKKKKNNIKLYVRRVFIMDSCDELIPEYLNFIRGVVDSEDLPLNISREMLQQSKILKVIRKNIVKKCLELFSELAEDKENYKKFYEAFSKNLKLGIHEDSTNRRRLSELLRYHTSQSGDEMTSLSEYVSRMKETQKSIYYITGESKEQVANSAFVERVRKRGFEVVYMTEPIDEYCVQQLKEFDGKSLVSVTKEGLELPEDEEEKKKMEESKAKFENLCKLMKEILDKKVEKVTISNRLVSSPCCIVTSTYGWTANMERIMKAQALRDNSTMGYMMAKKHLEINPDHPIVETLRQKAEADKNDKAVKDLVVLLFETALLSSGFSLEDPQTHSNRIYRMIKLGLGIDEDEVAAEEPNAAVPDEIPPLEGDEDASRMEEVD

Binder	Kd (Full-length human Hsp90β) [µM]	stoichiometry N (Full-length human Hsp90β)	Kd [1] [µM]	Kd [2] [µM]	also measured
B1	2.6 ± 0.2	1			
B2			2.3 ± 0.2		
B3				64.5 ± 3.7	
B4	2.8 ± 0.1	1			Kd [3]: 6.4 ± 0.5 µM
GSGPTIEEVD (C-terminal peptide of human Hsp70) [Human Hsp70 GSGPTIEEVD C-terminal peptide]				147	
B5			8.3 ± 0.6		
